Experimental data from paper PMC7547225 (Proceedings of the National Academy of Sciences of the …, 2020).

B1: hs PCDH15 EC2-3 WT (domain or fragment)
chain: NSPTFKHESYYATVNELTPVGTTIFTGFSGDNGATDIDDGPNGQIEYVIQYNPDDPTSNDTFEIPLMLTGNIVLRKRLNYEDKTRYFVIIQANDRAQNLNERRTTTTTLTVDVLDGDDLGPMFLPCVLVPNTRDCRPLTYQAAIPELRTPEELNPIIVTPPIQAIDQDRNIQPPSDRPGILYSILVGTPEDYPRFFHMHPRTAELSLLEPVNRDFHQKFDLVIKAEQDNGHPLPAFAGLHIEILDENN
B2: hs PCDH15 EC1-3 G16D/N369D/Q370N (domain or fragment)
chain: not shown

How the values were obtained:
AUC = biological target: the molecule itself; test: AUC
[1] = biological target: the molecule itself

| Protein | Kd (AUC) [nM] | stoichiometry N [1] |
| --- | --- | --- |
| B1 | < 1000 |  |
| B2 |  | 2 |
